The text below walks through data of doi:10.1101/2025.07.03.663104 (bioRxiv, 2025).

The assay concerns the target ThBP24k (recombinant, no tag named) (Magnaporthe oryzae, UniProt G4NG01). As to the kind of experiment: BLI. The following applies: both partners purified.

B1: OsPR5-His (natural protein)
chain: ATFTITNRCSFTVWPAATPVGGGVQLSPGQTWTINVPAGTSSGRVWGRTGCSFDGSGRGSCATGDCAGALSCTLSGQKPLTLAEFTIGGSQDFYDLSVIDGYNVAMSFSCSSGVTVTCRDSRCPDAYLFPEDNTKTHACSGNSNYQVVFCP
Regarding B1, the Kd was 2.41 nM.
